Test results: patent US20190077860A1 (EISAI R AND D MANAGEMENT, published 2019)
Numbering of substitutions follows the chain as printed.

T1: human EphA6 extracellular region-SEAP-His protein (human, UniProt Q9UF33 23-550)
T1 construct: extracellular domain; also called hEphA6-SEAP-His
T1 sequence (looked up): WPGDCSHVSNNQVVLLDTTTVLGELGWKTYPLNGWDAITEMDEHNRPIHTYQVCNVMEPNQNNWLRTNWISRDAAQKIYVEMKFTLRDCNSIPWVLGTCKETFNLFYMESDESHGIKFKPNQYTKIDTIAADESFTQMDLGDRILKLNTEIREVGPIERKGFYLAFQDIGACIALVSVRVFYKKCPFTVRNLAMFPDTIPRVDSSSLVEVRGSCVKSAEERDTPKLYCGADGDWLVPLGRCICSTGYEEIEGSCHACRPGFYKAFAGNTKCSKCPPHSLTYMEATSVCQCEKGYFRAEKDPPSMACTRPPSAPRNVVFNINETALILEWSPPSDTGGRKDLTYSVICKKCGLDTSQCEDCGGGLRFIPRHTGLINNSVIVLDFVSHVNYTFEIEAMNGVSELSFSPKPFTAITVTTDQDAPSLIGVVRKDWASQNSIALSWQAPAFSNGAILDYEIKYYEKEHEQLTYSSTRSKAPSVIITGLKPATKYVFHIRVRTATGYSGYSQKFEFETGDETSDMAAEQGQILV

T2: human EphB3 extracellular region-SEAP-His protein (human, UniProt P54753 34-559)
T2 construct: extracellular domain; also called hEphB3-SEAP-His
T2 sequence (looked up): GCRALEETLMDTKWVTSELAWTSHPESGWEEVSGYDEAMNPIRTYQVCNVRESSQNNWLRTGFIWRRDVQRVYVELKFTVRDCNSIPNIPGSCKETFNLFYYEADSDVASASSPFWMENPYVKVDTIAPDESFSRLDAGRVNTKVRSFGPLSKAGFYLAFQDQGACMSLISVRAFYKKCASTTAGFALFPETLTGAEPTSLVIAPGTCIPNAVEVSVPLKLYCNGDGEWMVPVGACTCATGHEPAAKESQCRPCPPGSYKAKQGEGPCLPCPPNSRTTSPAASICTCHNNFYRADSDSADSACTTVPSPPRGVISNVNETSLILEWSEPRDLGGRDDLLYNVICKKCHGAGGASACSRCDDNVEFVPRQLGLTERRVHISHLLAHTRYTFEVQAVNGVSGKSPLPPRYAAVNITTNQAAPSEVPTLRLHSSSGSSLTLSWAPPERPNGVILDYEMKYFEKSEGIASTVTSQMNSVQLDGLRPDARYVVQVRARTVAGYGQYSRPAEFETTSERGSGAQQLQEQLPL

T3: human EphB1 extracellular region-SEAP-His protein (human, UniProt P54762 18-540)
T3 construct: extracellular domain; also called hEphB1-SEAP-His
T3 sequence (looked up): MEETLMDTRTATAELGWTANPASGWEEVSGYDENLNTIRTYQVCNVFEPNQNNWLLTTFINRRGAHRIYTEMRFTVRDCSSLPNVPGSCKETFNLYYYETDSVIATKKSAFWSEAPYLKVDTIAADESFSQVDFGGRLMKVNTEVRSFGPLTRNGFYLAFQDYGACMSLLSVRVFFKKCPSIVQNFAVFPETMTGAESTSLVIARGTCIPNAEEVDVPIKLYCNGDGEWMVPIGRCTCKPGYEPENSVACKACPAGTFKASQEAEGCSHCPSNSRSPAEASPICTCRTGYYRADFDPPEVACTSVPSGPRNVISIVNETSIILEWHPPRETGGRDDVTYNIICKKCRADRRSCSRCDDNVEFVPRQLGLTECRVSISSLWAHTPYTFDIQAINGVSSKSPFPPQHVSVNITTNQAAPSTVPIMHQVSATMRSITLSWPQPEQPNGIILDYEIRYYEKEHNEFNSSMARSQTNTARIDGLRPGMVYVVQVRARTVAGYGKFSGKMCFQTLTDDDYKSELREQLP

T4: human EphB4 extracellular region-SEAP-His protein (human, UniProt P54760 16-539)
T4 construct: extracellular domain; also called hEphB4-SEAP-His
T4 sequence (looked up): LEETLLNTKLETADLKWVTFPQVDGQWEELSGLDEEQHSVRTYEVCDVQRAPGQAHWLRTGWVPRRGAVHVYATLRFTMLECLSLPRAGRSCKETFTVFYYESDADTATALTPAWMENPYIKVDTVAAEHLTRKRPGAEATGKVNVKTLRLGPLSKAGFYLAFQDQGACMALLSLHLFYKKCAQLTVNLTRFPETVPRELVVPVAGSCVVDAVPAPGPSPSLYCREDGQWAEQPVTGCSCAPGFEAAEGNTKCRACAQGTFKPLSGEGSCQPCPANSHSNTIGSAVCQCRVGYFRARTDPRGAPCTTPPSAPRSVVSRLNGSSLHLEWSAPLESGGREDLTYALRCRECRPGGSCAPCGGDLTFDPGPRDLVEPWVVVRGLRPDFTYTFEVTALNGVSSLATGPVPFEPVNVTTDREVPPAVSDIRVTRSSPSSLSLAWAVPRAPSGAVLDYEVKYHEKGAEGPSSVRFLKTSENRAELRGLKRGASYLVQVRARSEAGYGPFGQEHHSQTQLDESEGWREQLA

B1: humanized antibody No. 83 (antibody, human IgG1, kappa)
heavy: QIQLVQSGSELKKPGASVKVSCKASGYTFTDYSMHWVRQAPGQGLKWMGWINTETGEPTYAQGFTGRFVFSLDTSVSTAYLQISSLKAEDTAVYYCARIPLYYYGSRYWYFDVWGQGTTVTVSSASTKGPSVFPLAPSSKSTSGGTAALGCLVKDYFPEPVTVSWNSGALTSGVHTFPAVLQSSGLYSLSSVVTVPSSSLGTQTYICNVNHKPSNTKVDKRVEPKSCDKTHTCPPCPAPPAAAPSVFLFPPKPKDTLMISRTPEVTCVVVDVSHEDPEVQFNWYVDGVEVHNAKTKPREEQFNSTFRVVSVLTVVHQDWLNGKEYKCKVSNKGLPAPIEKTISKTKGQPREPQVYTLPPSREEMTKNQVSLTCLVKGFYPSDIAVEWESNGQPENNYKTTPPMLDSDGSFFLYSKLTVDKSRWQQGNVFSCSVMHEALHNHYTQKSLSLSPG
light: DIQMTQSPSSLSASVGDRVTITCRASENIYRNLAWYQQKPGKAPKLLLYAATNLADGVPSRFSGSGSGTDYTLTISSLQSEDFATYYCQHFWGTPWTFGQGTKVEIKRTVAAPSVFIFPPSDEQLKSGTASVVCLLNNFYPREAKVQWKVDNALQSGNSQESVTEQDSKDSTYSLSSTLTLSKADYEKHKVYACEVTHQGLSSPVTKSFNRGEC
notes: human Ig kappa; also called L1-5/HA4
B2: humanized antibody No. 84 (antibody, human IgG1, kappa)
heavy: B1 heavy with I2V, K46E, Q62D, G63D, T65K
light: B1 light
notes: human Ig kappa; also called L1-5/HK1
B3: humanized antibody No. 85 (antibody, human IgG1, kappa)
heavy: B1 heavy with I2V, Q62D, G63D, T65K
light: B1 light
notes: human Ig kappa; also called L1-5/HK2
B4: humanized antibody No. 86 (antibody, human IgG1, kappa)
heavy: B1 heavy with Q62D, G63D, T65K
light: B1 light
notes: human Ig kappa; also called L1-5/HK4
B5: humanized antibody No. 87 (antibody, human IgG1, kappa)
heavy: B1 heavy with I2V, K46E
light: B1 light with K45Q, S80P
notes: human Ig kappa; also called L1-6/HA1
B6: humanized antibody No. 88 (antibody, human IgG1, kappa)
heavy: B1 heavy with I2V
light: B1 light with K45Q, S80P
notes: human Ig kappa; also called L1-6/HA2
B7: humanized antibody No. 89 (antibody, human IgG1, kappa)
heavy: B1 heavy
light: B1 light with K45Q, S80P
notes: human Ig kappa; also called L1-6/HA4
B8: humanized antibody No. 90 (antibody, human IgG1, kappa)
heavy: B1 heavy with I2V, K46E, Q62D, G63D, T65K
light: B1 light with K45Q, S80P
notes: human Ig kappa; also called L1-6/HK1

Key:
Test in all cases: ELISA
[1] = biological target: T5, human EphA2 extracellular region-SEAP-His protein (human, UniProt P29317 24-537)
T5 construct: extracellular domain; also called hEphA2-SEAP-His
T5 sequence (P29317 24-537): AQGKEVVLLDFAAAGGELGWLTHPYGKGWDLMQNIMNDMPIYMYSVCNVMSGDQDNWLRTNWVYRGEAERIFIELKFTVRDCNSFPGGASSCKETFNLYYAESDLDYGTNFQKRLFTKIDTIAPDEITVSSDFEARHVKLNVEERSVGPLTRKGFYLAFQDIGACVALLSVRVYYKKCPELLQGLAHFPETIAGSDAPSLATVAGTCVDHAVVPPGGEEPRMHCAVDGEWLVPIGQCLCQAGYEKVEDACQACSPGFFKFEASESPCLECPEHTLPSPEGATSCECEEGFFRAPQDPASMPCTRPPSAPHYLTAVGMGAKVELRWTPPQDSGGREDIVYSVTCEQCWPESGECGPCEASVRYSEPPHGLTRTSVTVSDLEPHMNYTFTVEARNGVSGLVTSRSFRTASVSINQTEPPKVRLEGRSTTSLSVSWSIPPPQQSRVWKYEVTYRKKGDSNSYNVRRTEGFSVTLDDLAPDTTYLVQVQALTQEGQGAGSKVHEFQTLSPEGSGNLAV

[2] = biological target: T1, human EphA6 extracellular …
[3] = biological target: T2, human EphB3 extracellular …
[4] = biological target: T3, human EphB1 extracellular …
[5] = biological target: T4, human EphB4 extracellular …
[6] = biological target: T6, human EphA4 extracellular region-SEAP-His protein (human, UniProt P54764 20-547)
T6 construct: also called hEphA4-SEAP-His
T6 sequence (P54764 20-547): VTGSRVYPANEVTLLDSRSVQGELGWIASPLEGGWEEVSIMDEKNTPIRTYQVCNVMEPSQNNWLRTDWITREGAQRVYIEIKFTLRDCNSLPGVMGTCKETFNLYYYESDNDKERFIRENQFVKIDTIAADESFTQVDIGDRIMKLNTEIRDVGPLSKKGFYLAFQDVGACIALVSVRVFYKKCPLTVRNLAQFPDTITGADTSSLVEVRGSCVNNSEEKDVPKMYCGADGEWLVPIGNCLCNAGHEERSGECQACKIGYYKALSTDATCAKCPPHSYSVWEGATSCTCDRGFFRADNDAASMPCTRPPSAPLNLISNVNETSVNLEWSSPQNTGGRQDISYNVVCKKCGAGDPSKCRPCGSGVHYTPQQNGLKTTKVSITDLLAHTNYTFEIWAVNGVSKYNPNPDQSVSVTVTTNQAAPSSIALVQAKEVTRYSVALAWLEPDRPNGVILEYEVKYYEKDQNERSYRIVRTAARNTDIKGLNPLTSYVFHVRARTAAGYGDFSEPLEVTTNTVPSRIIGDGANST

Row | Binder | A450 as % of hEphA4-SEAP-His [1] [%] | A450 as % of hEphA4-SEAP-His [2] [%] | A450 as % of hEphA4-SEAP-His [3] [%] | A450 as % of hEphA4-SEAP-His [4] [%] | A450 as % of hEphA4-SEAP-His [5] [%] | A450 as % of hEphA4-SEAP-His [6] [%]
1 | B1 | 5.8 | 7.5 | 5.7 | 5.6 | 5.7 | 100
2 | B2 | 4.9 | 6 | 4.8 | 5.2 | 5.4 | 100
3 | B3 | 5.1 | 6.2 | 5.2 | 5 | 5.2 | 100
4 | B4 | 5.7 | 8.6 | 5.9 | 5.7 | 5.8 | 100
5 | B5 | 5.4 | 6.4 | 5.5 | 5.3 | 5.5 | 100
6 | B6 | 5.8 | 7.5 | 6.3 | 6.1 | 6.1 | 100
7 | B7 | 5.6 | 8.4 | 5.7 | 5.7 | 5.8 | 100
8 | B8 | 5.2 | 7.6 | 5.1 | 4.9 | 5 | 100
